Like-named read-outs stand apart in the source and are kept apart here.
Columns and labels:
H3K9me0 oligonucleosomes = test: Chromatin sedimentation (clustering), H3K9me0 oligonucleosomes; format: biochemical, Xenopus laevis; details: 150 mM NaCl, EtBr fluorescence, n=3
Experimental: Figure 3 hHP1β clusters oligonuclesomal arrays in dependence of H3K9me3. (a) Oligonucleosomes (2.5 nM) were incubated with increasing concentrations of hHP1β WT or I161A at 150 mM NaCl. DNA remaining in the supernatant after centrifugation was incubated with EtBr and measured by fluorescence reading. Data were normalized to amounts in absence of added protein. Averages of three independent experiments are plotted; error bars represent s.d.; n=3. (b) Analysis of the hydrodynamic radius of oligonucleosomes (10 nM; DNA labelled with ATTO 610) in the presence of increasing concentrations of hHP1β WT or I161A by FCS at 150 mM NaCl. For details on experimental setup see Supplementary Fig. 3. Error bars represent s.d.; n=3. (c) Oligonucleosomes were reconstituted after mixing H3K9me0 and H3K9me3 octamers at different ratio. Chromatin precipitation analysis at 150 mM NaCl was carried out with hHP1β WT at saturating concentration. Data are presented as in a. (d) Precipitation behaviour of oligonucleosomes (2.5 nM) was analysed at different concentrations of NaCl with hHP1β WT at saturating concentration. […] Precipitated material was analysed by western blotting. […] Complexes were fixed with 0.05% (v/v) glutaraldehyde, spotted on mica surfaces and analysed by scanning force microscopy. […] (h) Quantification of results representatively shown in g according to the classification on the top: A, extended; B, partially condensed; C, fully condensed; D; aggregates; n>50 for each condition.
For saturating conditions, 2.7 nM oligonucleosomes were incubated with 5 μM hHP1β proteins in 100 μl sedimentation buffer (10 mM triethanolamine (pH 7.5), 150 mM NaCl, 0.1 mM EDTA) for 1 h on ice. […] For quantification of chromatin DNA, the input and output samples were incubated with 40 μl 0.5 μg ml^−1 ethidium bromide and fluorescence was measured on a Plate CHAMELEON II fluorescence plate reader (Hidex, Turku, Finland) using a 360 nm (±5 nm) excitation filter and a 612 nm (±5 nm) emission filter. For each sample the ratio of DNA concentrations after and before centrifugation (output/input) was calculated. […]

H3K9me3 peptide = target: T1, H3K9me3 peptide (Homo sapiens, UniProt P68431); test: ITC, H3K9me3 peptide; format: binding; details: for Kd / N (stoichiometry of interaction): ITC; for Kd: 10 mM triethanolamine pH 7.5, 0.1 mM EDTA, 25°C, read-out: Kd (apparent dissociation constant); for N (stoichiometry of interaction): pH 7.5, 25°C
T1 construct: C-terminally biotinylated histone H3 peptides (aa 1–20)
Experimental: ITC measurements were performed on a iTC200 calorimeter (Microcal, Malvern, UK) at 25°C in binding buffer (10 mM triethanolamine (pH 7.5), 20 or 150 mM NaCl, 0.1 mM EDTA). Reaction heats were recorded by sequences of 37 injections of 1.8 mM hHP1β, spaced at 120 s intervals, into 250 μl of 60 μM H3 peptides, nucleosomes or oligonucleosomal arrays under constant stirring at 1,000 r.p.m. (injection #1–10: 0.5 μl each; injection #11–32: 1 μl each; injection #33–37: 2 μl each). Heats of dilution, obtained by the titration of hHP1β into buffer, were substracted from raw data before analysis. Raw data were integrated, normalized and the apparent heat change (Δq) of the reaction was plotted against the molecular ratio using the Origin software. For the determination of apparent enthalpy changes (ΔHapp), the molar association constant (KA), and the stoichiometry (n) of the interaction, non-linear least-square fitting of the Δq values was performed by the Origin software using a binding model of one set of identical binding sites.
Figure S4 Hiragami-Hamada et al. […]
Supplementary Figure 4: Quantitative analysis of interaction of hHP1β with H3K9me3-peptides and
(a) ITC measurements of H3K9me3-peptide/hHP1β WT interaction at 20 mM NaCl (left) and 150 mM
NaCl (right). Upper panels, raw data of heat release upon stepwise injection of recombinant protein into
solution of peptide; lower panels, plots of integrated heats of protein injections vs. molar ratio of hHP1β
WT per peptide calculated by MicroCal software. Injections #1-10: 0.5 µl; injections #11-32: 1 µ l; […]

Substance | chromatin clustering/aggregation, H3K9me0 (H3K9me0 oligonucleosomes) | chromatin clustering/aggregation, H3K9me0 (H3K9me0 oligonucleosomes; listed as hHP1β) | Kd (H3K9me3 peptide; 20 mM NaCl) [nM] | N (stoichiometry of interaction) (H3K9me3 peptide; 20 mM NaCl) | Kd (H3K9me3 peptide; 150 mM NaCl) [nM] | N (stoichiometry of interaction) (H3K9me3 peptide; 150 mM NaCl) | binding to H3K9me3 peptide relative to WT (H3K9me3 peptide; Table 1)
hHP1β WT: recombinant human heterochromatin protein 1β (GenBank NM_001127228), 185 aa | efficiently aggregated H3K9me3 but not H3K9me0 oligonucleosomes | No clustering of H3K9me0 chromatin | 1400 ± 600 | 0.9±0.0 | 3300 ± 200 | 1.0±0.0 | 
hHP1β I161A: CSD point mutant of hHP1β incapable of dimerization | neither the I161A mutant, nor the isolated CD or CSD had any effect on modified or unmodified chromatin |  | 1100 ± 500 | 1.0±0.1 | 3400 ± 200 | 0.9±0.0 | bound an H3K9me3-peptide as efficiently as hHP1β wild type

From PMC4838890, “Dynamic and flexible H3K9me3 bridging via HP1β dimerization establishes a plastic state of condensed chromatin” (Nature Communications, 2016)
